# Patent EP1222208B1 (THE GENERAL HOSPITAL CORPORATION, dated 2008)
# Values joined by “and” are separate entries in the source; they are usually repeats but may differ in a detail not shown here. Equal values may be shown once. Square brackets hold non-standard residues; d marks the D form. Ends that are not written are not given here. Nle = CCCC[C@H](N)C(=O)O
# T1: human PTH-1 receptor (human, UniProt Q03431 27-593)
# T1 sequence (looked up): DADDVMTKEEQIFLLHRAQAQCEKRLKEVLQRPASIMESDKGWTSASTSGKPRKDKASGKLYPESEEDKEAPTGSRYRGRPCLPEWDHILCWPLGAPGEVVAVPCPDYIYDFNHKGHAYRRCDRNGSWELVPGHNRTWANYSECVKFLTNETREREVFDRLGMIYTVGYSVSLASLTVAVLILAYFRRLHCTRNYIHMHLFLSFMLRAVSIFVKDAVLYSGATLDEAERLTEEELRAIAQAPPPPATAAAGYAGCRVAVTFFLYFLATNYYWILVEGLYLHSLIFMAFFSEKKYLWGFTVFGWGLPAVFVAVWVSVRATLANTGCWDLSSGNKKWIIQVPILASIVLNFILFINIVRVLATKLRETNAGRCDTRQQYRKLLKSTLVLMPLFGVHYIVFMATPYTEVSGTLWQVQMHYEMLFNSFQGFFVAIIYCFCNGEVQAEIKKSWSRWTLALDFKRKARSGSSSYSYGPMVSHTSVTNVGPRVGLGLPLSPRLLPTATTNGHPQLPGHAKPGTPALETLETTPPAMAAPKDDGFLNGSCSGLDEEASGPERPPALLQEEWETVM
# T2: rat PTH-1 receptor (rat, UniProt P25961 27-591)
# T2 sequence (looked up): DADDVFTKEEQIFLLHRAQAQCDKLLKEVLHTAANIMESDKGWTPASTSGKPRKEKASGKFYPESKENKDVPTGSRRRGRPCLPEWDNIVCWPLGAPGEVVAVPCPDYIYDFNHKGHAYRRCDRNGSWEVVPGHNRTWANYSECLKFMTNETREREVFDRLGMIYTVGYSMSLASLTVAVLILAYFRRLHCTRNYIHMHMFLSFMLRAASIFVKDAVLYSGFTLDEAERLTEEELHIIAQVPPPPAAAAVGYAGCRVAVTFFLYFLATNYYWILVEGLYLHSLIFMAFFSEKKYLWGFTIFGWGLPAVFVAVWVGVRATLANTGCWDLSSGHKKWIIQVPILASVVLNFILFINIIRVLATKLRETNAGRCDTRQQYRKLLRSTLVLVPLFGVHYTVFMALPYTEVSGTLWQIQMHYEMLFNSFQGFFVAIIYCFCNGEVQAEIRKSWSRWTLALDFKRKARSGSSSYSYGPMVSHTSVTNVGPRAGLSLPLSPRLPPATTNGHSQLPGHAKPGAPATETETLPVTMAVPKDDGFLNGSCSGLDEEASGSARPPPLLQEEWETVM
# Biological target: human PTH-2 receptor (human, UniProt P49190 25-550)
# Sequence (P49190 25-550): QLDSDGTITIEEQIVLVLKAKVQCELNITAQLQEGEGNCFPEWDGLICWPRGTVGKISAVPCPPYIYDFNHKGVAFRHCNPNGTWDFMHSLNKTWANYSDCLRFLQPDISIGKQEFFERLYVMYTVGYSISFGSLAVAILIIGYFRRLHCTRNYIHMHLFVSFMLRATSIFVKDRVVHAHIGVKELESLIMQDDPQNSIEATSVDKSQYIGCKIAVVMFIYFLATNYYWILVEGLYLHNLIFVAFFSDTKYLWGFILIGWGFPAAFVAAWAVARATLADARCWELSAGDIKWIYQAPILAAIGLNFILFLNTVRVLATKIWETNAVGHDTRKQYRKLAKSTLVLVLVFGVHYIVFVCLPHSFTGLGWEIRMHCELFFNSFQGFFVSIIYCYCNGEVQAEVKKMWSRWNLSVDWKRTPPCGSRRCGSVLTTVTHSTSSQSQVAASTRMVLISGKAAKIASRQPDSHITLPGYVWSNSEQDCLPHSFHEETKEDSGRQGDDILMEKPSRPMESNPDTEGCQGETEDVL
# Experiment: cell-based or functional assay
row,Binder,"cAMP EC50, LLC-P2R-22 cells"
1,"AVAEIQLMHARAKH-NH2 [[A3,A10,R11,A12]rPTH(1-14)amide]",-3.9 Log M and 126 µM
2,"AVSEIQL[Nle]HNLGKHLASVER[Nle]QWLRKKLQDVHNY-NH2 [[Nle^8,21,Tyr^34]-rPTH(1-34)NH2]",-8.4 Log M and 0.0044 µM
3,"AVAEIQLMHARAK-NH2 [[A3,A10,R11,A12]rPTH(1-13)]",-4 Log M and 106 µM
4,"AVAEIQLMHARA-NH2 [[A3,A10,R11,A12]rPTH(1-12)]",-3.5 Log M and 342 µM

# Biological target: T1, human PTH-1 receptor
# Experiment: cell-based or functional assay
row,Binder,"cAMP EC50, HKRK-B7 cells"
1,"AVAEIQLMHARAKH-NH2 [[A3,A10,R11,A12]rPTH(1-14)amide]",-6.1 Log M and 0.83 µM
2,"AVSEIQL[Nle]HNLGKHLASVER[Nle]QWLRKKLQDVHNY-NH2 [[Nle^8,21,Tyr^34]-rPTH(1-34)NH2]",-8.6 Log M and 0.0033 µM
3,SVSEIQLMHNLGKHLNSMERVEWLRKKLQDVHNY-NH2 [[Tyr^34]human (h)PTH(1-34)NH2],-8.4 Log M and 0.004 µM
4,AVSEIQLMHNLGKH-NH2 [native rat (r)PTH(1-14)NH2],-3.9 Log M and 133 µM
5,"AVAEIQLMHAR-NH2 [[A3,A10,R11]rPTH(1-11)]",-4.8 Log M and 17.1 µM
6,"AVAEIQLMHARAKW-NH2 [[A3,A10,R11,A12,W14]rPTH(1-14)amide]",-6.3 Log M and 0.6 µM
7,"AVAEIQLMHQRAKH-NH2 [[A3,Q10,R11,A12]rPTH(1-14)]",-6.1 Log M and 0.8 µM
8,"AVAEIQLMHARAK-NH2 [[A3,A10,R11,A12]rPTH(1-13)]",-5.6 Log M and 2.4 µM
9,"AVAEIQLMHARA-NH2 [[A3,A10,R11,A12]rPTH(1-12)]",-5 Log M and 10.2 µM

# Biological target: T1, human PTH-1 receptor
# Experiment: cell-based or functional assay
# Remark: another data set of the same source
Binder,"cAMP EC50, COS-7 cells, WT hPTH-1 receptor","cAMP Emax, COS-7 cells, WT hPTH-1 receptor [picomole/well]"
"AVAEIQLMHARAKH-NH2 [[A3,A10,R11,A12]rPTH(1-14)amide]",-6 Log M and 4.66 µM,243
"AVSEIQL[Nle]HNLGKHLASVER[Nle]QWLRKKLQDVHNY-NH2 [[Nle^8,21,Tyr^34]-rPTH(1-34)NH2]",-9.2 Log M and 0.0007 µM,226
SVSEIQLMHNLGKHLNSMERVEWLRKKLQDVHNY-NH2 [[Tyr^34]human (h)PTH(1-34)NH2],-9.3 Log M and 0.0005 µM,226
AVSEIQLMHNLGKH-NH2 [native rat (r)PTH(1-14)NH2],-3.8 Log M and 152 µM,221
"AVAEIQLMHAR-NH2 [[A3,A10,R11]rPTH(1-11)]",-4.6 Log M and 29.1 µM,238

# Biological target: truncated human PTH-1 receptor hΔNt (human), Q03431
# Experiment: cell-based or functional assay
Binder,"cAMP Emax, COS-7 cells, hDeINt (picomole/well)","cAMP potency relative to native PTH(1-14), truncated hPTH-1 receptor [fold]"
"AVAEIQLMHARAKH-NH2 [[A3,A10,R11,A12]rPTH(1-14)amide]",250,100
"AVSEIQL[Nle]HNLGKHLASVER[Nle]QWLRKKLQDVHNY-NH2 [[Nle^8,21,Tyr^34]-rPTH(1-34)NH2]",243,–
SVSEIQLMHNLGKHLNSMERVEWLRKKLQDVHNY-NH2 [[Tyr^34]human (h)PTH(1-34)NH2],238,–
AVSEIQLMHNLGKH-NH2 [native rat (r)PTH(1-14)NH2],222,–
"AVAEIQLMHAR-NH2 [[A3,A10,R11]rPTH(1-11)]",243,–

# Biological target: T1, human PTH-1 receptor
# Experiment: cell-based or functional assay
# Remark: another data set of the same source
Binder,"cAMP potency relative to native PTH(1-14), LLC-PK1 cells stably expressing the hPTH-1 receptor [fold]","cAMP potency relative to native PTH(1-14), LLC-PK-1 cells stably expressing the hPTH-1 receptor [fold]"
"AVAEIQLMHARAKH-NH2 [[A3,A10,R11,A12]rPTH(1-14)amide]",160,100
"AVAEIQLMHARAKW-NH2 [[A3,A10,R11,A12,W14]rPTH(1-14)amide]",220,–

# Biological target: T2, rat PTH-1 receptor
# Experiment: cell-based or functional assay
row,Binder,"cAMP EC50, ROS 17/2.8 cells [Log M]"
1,"AVAEIQLMHARAKW-NH2 [[A3,A10,R11,A12,W14]rPTH(1-14)amide]",-5.5

# Biological target: T1, human PTH-1 receptor
# Experiment: cell-based or functional assay
# Remark: another data set of the same source
row,Binder,"cAMP EC50, SAOS-2 cells"
1,SVSEIQLMHNLGKHLNSMERVEWLRKKLQDVHNY-NH2 [[Tyr^34]human (h)PTH(1-34)NH2],-9.28 Log M and 0.00052 µM
